Results on one substance are retold here after article PMC8940892.

The experiment deals with small capsid protein (SCP, VP26) of pseudorabies virus (pseudorabies virus (PRV), Bartha strain). As to the kind of experiment: cryo-EM structure.

The term stoichiometry N denotes the number of molecules, sites or subunits per partner or assembly. Substance “small capsid protein (SCP, VP26) of pseudorabies virus (natural protein)” yielded a stoichiometry N of 6.
